The values below come from the RNAGym collection of RNA variant scans (doi:10.1073/pnas.2313332121).

First the molecules themselves.
B1: TPR t1 (parent)
chain: GACCAAUCUGCCCUCAGAGCUCGAGAACAUCUUCGGAUGCAGAGGAGGCAGGCUUCGGUGGCGCGAUAGCGCCAACGUCCUCAACCUCCAAUGCAUCCCACCACAUGAUGAUGCCUGAAGAGCCUUGGUUUUUUG

The data set covers variants of B1. The experiment in a line: polymerase ribozyme fitness, log enrichment relative to wild type (log ratio); higher = more active; in vitro selection for triplet polymerase activity. The method, boiled down: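 Mutant libraries of both subunits of a heterodimeric triplet polymerase ribozyme were PCR-built, transcribed, and selected once in triplicate, with frozen incubation at −7 °C and capture of gel-excised extended constructs on streptavidin beads before RT-PCR. Illumina sequencing of input and output libraries was filtered to genotypes with ≥10 input reads and ≥1 read per output. Fitness is the logarithm of genotype enrichment over wild-type enrichment, using inverse-variance-weighted replicate averages. The logarithm is base 2.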
Consider G60A C72G U131A, for which the “polymerase ribozyme fitness (log ratio)” value was -1.09. Then G60A C124U, with 1.27. Then G60A C124A, with 1.81; and G60C C86A C97G U116C, with -4.3; and G61A A84U G93C G128A, with -3.36. With G61A C73U U78A C114A the figure was -2.49. As for G60C G71U G120U U130G, the “polymerase ribozyme fitness (log ratio)” value is -5.39.

Regarding G60U C79A, the “polymerase ribozyme fitness (log ratio)” value is -0.593. For the variant G60U G77A U131A, the “polymerase ribozyme fitness (log ratio)” value is -0.885. On to G60A C72G U92C G93A, for which the “polymerase ribozyme fitness (log ratio)” value is -4.92. Then G60A G117A, with -1.29.

For G60C A68G, the “polymerase ribozyme fitness (log ratio)” value was -4.8.

As to G60U G71C, the “polymerase ribozyme fitness (log ratio)” value is -3.38. With G60U G71U, the “polymerase ribozyme fitness (log ratio)” value was -1.98.

Take G60A C97A: the “polymerase ribozyme fitness (log ratio)” value is -4.41.

G60A C97G: the “polymerase ribozyme fitness (log ratio)” value is -4.02. G60A C80U C89U U129G: the “polymerase ribozyme fitness (log ratio)” value is -3.44. With G60A C94A G110U the figure was -3.31. As for G60U C89U U106A, the “polymerase ribozyme fitness (log ratio)” value is -0.38.

Take G60U A95G C115G: the “polymerase ribozyme fitness (log ratio)” value is -2.25. For the variant G60C C94G U116C C123U, the “polymerase ribozyme fitness (log ratio)” value is -3.28. With G60A G71A A90U C94A G110C the figure was -6.47; with G60U C114A G127C, -2.37; with G60C U116C, -1.73. Then G60U U130G, with -0.482; and G60U U130A, with -0.92; and G60C C94U, with -0.143. Then G60C C94G, with -1.12; and G60U G61A, with -0.341; and G60U G61U, with -1.93. For the variant G61A U78C C88G, the “polymerase ribozyme fitness (log ratio)” value was -0.472. In the case of G61A U125G, the “polymerase ribozyme fitness (log ratio)” value is -0.638. With G61A C80U the figure was -1.03.

G61A U87C U126G: the “polymerase ribozyme fitness (log ratio)” value is -1.59. Then G60A C115A G117A, with -4.99; and G61A A91C A95U G110U C115A U125C U130C, with -3.6. Then G61A A91C U96A, with -1.49; and G60U C80U U106G U129G, with -6.15; and G60A A118C, with -3.63. With G60U A108C C124A the figure was -5.47. Regarding G61A A84C C88G, the “polymerase ribozyme fitness (log ratio)” value came to 0.0148.

With G60U C115A, the “polymerase ribozyme fitness (log ratio)” value worked out at 0.226. Then G60C U112G, with -0.433; and G60C U112A, with 0.838; and G60U G61A U78G A84U C86A, with -3.37. Then G61A C76U C97U, with -4.24; and G61A U81G U116G C124A, with -2.39. Consider G61A U81G A84G A91G A111G, for which the “polymerase ribozyme fitness (log ratio)” value was -4.48. With G61A A121C the figure was 1.95; with G60C A95G G120A U130C, 0.59.

On to G61A U81A C82A C98U, for which the “polymerase ribozyme fitness (log ratio)” value was -1.55. With G60U G128A the figure was -1.69. Regarding G60U G128U, the “polymerase ribozyme fitness (log ratio)” value is -2.12. With G60U G71A U92G C123A the figure was -6.18.

G60U A91C G93U C104A G117U: the “polymerase ribozyme fitness (log ratio)” value was -6. Consider G60A U129A, for which the “polymerase ribozyme fitness (log ratio)” value is -0.603. Then G60A C73A A91C G113U, with -3.43; and G61A C82U, with 0.141. With G61A C82A the figure was -0.883; with G61A C82G, -1.29.

With G61A C79G, the “polymerase ribozyme fitness (log ratio)” value is -0.521. Then G61A C79U, with -0.164. Then G60U A121C, with 1.48; and G60U G120C, with 1.43; and G60A C101A, with -1.57. With G60C G93C G120A U126C the figure was -0.901; with G61A C70U, -0.854.

In the case of G61A C70A, the “polymerase ribozyme fitness (log ratio)” value is -3.99.

In the case of G60A C89U C124A, the “polymerase ribozyme fitness (log ratio)” value amounted to 0.913. Then G60A U125G, with -0.67; and G60A C80G, with -4.53; and G60A C80A, with -3.69. Then G61A G117A, with -0.803; and G61A G117C, with -2.99; and G60A C88G G120C, with -0.823.

G61A C88G G110A: the “polymerase ribozyme fitness (log ratio)” value was -1.26. Then G61A U116G G128U, with -3.71; and G61A A105G, with -1.89. With G61A U78C C104A the figure was -1.61. Then G60A U131A, with 0.546.

Consider G61A C101G, for which the “polymerase ribozyme fitness (log ratio)” value is -1.59. Then G61A C101A, with -0.787; and G60C A66U G113A U126C, with -4.03; and G60A C114G, with -2.53.

On to G60C U81C, for which the “polymerase ribozyme fitness (log ratio)” value is -0.172. Take G60A C79A G110A: the “polymerase ribozyme fitness (log ratio)” value is -3.84. Then G61A C88A G120C A121U, with 0.393; and G60U G120A U126A, with -0.262. As for G61A U131C, the “polymerase ribozyme fitness (log ratio)” value is -0.691. With G61A U131G the figure was -0.0143; with G60U U106A, -0.529.

Take G60A G127A: the “polymerase ribozyme fitness (log ratio)” value is -0.964. Then G60C A84C C86U, with -1.01; and G61A U78C C80U, with -5.11; and G61A G128A, with -1.69. As to G60U G63U C99U C101G C115G G122U C124G, the “polymerase ribozyme fitness (log ratio)” value was -6.39. Then G60A G71U, with -4.5; and G61A G63U, with -3.75; and G60C U96A, with -1.77. With G61A C89G G93A, the “polymerase ribozyme fitness (log ratio)” value was -2.18.

As to G60U U132C, the “polymerase ribozyme fitness (log ratio)” value was -0.354.

With G60A C85U, the “polymerase ribozyme fitness (log ratio)” value is -0.816. With G61A G127U U134C the figure was -0.718.

On to G60U A91G C123U, for which the “polymerase ribozyme fitness (log ratio)” value is -0.372. Then G61A U78G, with -0.87. With G61A U78A the figure was -0.223; with G61A U130A, 0.0628; with G61A U130G, -0.92. With G60U C70A the figure was -3.78; with G61A A74C G128C, -5.31. For the variant G61A C99U, the “polymerase ribozyme fitness (log ratio)” value is -2.85.

On to G60C G120A, for which the “polymerase ribozyme fitness (log ratio)” value was 0.168. With G61A A103U G113C the figure was -6.41; with G60C U133A, -0.621. With G60A C82A C85A G120A the figure was -0.412. Then G61A A83C G110U G117U, with -5.13; and G61A C73A, with -0.202; and G61A U78A U126G, with -2.02. G61A C80G U109A G113U U133G: the “polymerase ribozyme fitness (log ratio)” value is -5.53. For G61C A66U A121G, the “polymerase ribozyme fitness (log ratio)” value is -0.122. G61A G110A C114G: the “polymerase ribozyme fitness (log ratio)” value is -6.32. With G61A G135U the figure was -0.801. Then G60U C97A C123U, with -2.62; and G61A C88G G120A A121C, with -1.75; and G61A U92C C114A, with -2.51. Take G61A U87A C124A: the “polymerase ribozyme fitness (log ratio)” value is 1.93. For the variant G61A A90G, the “polymerase ribozyme fitness (log ratio)” value was -0.68. With G61A U96G U130C the figure was -0.371. With G60A C79U C80A A121G the figure was -3.77; with G60U U81A, -0.347; with G60A C82G C101U G120A G128U, -2.12. For G60A A105C C115U, the “polymerase ribozyme fitness (log ratio)” value was -5.65. With G60A C72G, the “polymerase ribozyme fitness (log ratio)” value is -1.01. With G60U C62U G117U the figure was -5.73. With G61A G77A the figure was -1.19; with G60C C88U, -0.669.

Turning to G60U G113U, the “polymerase ribozyme fitness (log ratio)” value is -2.04. Then G60U G113A, with -0.847; and G60A A84U C115A U131G, with -0.704.

Turning to G60A C114G U132G, the “polymerase ribozyme fitness (log ratio)” value was -4.75. With G60C G128A the figure was -2.48. Then G60A C86A U131C, with -1.16; and G60C C64G A90G A105C G117C G128A U133C U134G, with -4.98.

For the variant G61A C89U, the “polymerase ribozyme fitness (log ratio)” value is -0.458. Then G60C C94G U96A A103C, with -6.59; and G60U A103U, with -4.99. For the variant G61A G71A, the “polymerase ribozyme fitness (log ratio)” value is -2.39. Then G60U A111U, with -2.87; and G60U A111G, with 0.488; and G60A C86A C98G U109A G117U, with -6.71. With G60U C98G the figure was -5.35. With G61A C88A the figure was -0.575. As to G61A C97G, the “polymerase ribozyme fitness (log ratio)” value is -3.34.

For the variant G60A U87G C101U, the “polymerase ribozyme fitness (log ratio)” value was found to be 0.254. For G60U C114U C123U, the “polymerase ribozyme fitness (log ratio)” value is -3.67.

Consider G60U G93A A105C, for which the “polymerase ribozyme fitness (log ratio)” value is -3.53. With G60C the figure was -0.366. Then G60U, with 0.0514. For G60U C94U G110C, the “polymerase ribozyme fitness (log ratio)” value is -4.16. Then G61A G120A, with 0.833.

For the variant G60A A95U, the “polymerase ribozyme fitness (log ratio)” value is -0.238.

G60A A95G: the “polymerase ribozyme fitness (log ratio)” value was -0.00276. With G60A A95G C104A U132C the figure was -2.06. Then G61A G120U G135U, with -0.818; and G60A G63U U87A U92A C102A C115G G128U, with -5.66; and G60A C97G G120C, with -4.18. With G60A G61C G110C the figure was -5.74.
